According to publication PMC4220489 (Nature Communications, 2014):

T1: IL-12 subunit beta (p40), as in the recombinant human IL-23 of the crystal structure (human, UniProt P29460 23-328, C-mannosylated Trp319; N-linked glycans limited by kifunensine and trimmed with EndoH)
T1 construct: signal peptide in the construct; IL-12 subunit beta (p40), human, residues 1-328, cDNA as NCBI NM_002187.2 (silent codon change at Asn248); The p40 chain of m3, written alone for the pairs of the crystal structure; also called IL-23 p40; source: HEK-293T, co-transfected with p19-His, purified as IL-23 (Talon IMAC, SEC)
T1 sequence (looked up): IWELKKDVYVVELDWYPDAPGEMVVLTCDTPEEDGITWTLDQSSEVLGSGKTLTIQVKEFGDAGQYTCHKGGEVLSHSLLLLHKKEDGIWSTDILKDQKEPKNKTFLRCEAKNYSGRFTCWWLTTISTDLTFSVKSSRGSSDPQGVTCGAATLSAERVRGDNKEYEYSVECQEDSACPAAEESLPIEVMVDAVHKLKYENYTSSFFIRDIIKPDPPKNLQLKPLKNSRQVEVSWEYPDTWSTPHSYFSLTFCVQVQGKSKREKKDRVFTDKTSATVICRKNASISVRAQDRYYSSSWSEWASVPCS

T2: recombinant human IL-23 (p19-His co-expressed with p40 in HEK-293T) (human, UniProt Q9NPF7 20-189; P29460 23-328, N-linked glycans limited by kifunensine and trimmed with EndoH | C-mannosylated Trp319; N-linked glycans limited by kifunensine and trimmed with EndoH)
T2 chain 1: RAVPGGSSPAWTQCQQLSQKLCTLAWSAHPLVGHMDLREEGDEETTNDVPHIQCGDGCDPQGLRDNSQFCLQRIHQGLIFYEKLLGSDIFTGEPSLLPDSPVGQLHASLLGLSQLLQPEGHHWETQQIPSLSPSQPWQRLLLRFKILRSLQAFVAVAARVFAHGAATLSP
T2 chain 2: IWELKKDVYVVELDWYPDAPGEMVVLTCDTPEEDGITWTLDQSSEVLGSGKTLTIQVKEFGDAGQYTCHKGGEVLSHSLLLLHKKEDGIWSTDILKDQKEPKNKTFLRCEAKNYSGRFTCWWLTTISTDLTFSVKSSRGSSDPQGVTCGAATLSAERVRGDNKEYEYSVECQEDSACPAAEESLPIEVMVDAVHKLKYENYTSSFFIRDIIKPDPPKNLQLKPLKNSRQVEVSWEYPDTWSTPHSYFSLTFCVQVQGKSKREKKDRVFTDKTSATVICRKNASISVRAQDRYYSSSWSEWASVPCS


What was measured:
[1] = molecular target: T1, IL-12 subunit beta (p40), as in the …; test: crystal structure; IL-23:MA12_B2fC complex, two crystal forms (PEG 3,350 with Na2SO4 or potassium formate), molecular replacement with PDB 3DUH; conditions: both partners purified
[2] = molecular target: T2, recombinant human IL-23 (p19-His …); test: SPR
[3] = molecular target: T2, recombinant human IL-23 (p19-His …); test: SPR
[4] = molecular target: recombinant human IL-23 (p19-His co-expressed with p40 in HEK-293T) (human) (UniProt Q9NPF7); test: ITC; VP-ITC, 30 °C, 20 mM Hepes, 150 mM NaCl, pH 7.4; IL-23 4.9 μM in the cell, MA12 53.2 μM in the syringe; one binding site model; apparent

| binding result [1] | koff [2] [s⁻¹] | Kd [3] [nM] | Kd [4] [nM] | stoichiometry N [4] | Binder |
| --- | --- | --- | --- | --- | --- |
| binds | – | – | – | – | IL-23 subunit alpha (p19), as in the recombinant human IL-23 of the crystal structure (natural protein, UniProt Q9NPF7 20-189, looked up, N-linked glycans limited by kifunensine and trimmed with EndoH, signal peptide in the construct; IL-23 subunit alpha (p19), human, residues 1-189, cDNA as NCBI NM_016584.2; residue numbers as in UniProt; The p19 chain of m3, written alone for the pairs of the crystal structure; also called IL-23 p19; source: HEK-293T, co-transfected with p40, purified as IL-23 (Talon IMAC, SEC)) RAVPGGSSPAWTQCQQLSQKLCTLAWSAHPLVGHMDLREEGDEETTNDVPHIQCGDGCDPQGLRDNSQFCLQRIHQGLIFYEKLLGSDIFTGEPSLLPDSPVGQLHASLLGLSQLLQPEGHHWETQQIPSLSPSQPWQRLLLRFKILRSLQAFVAVAARVFAHGAATLSP |
| – | 0.000122 | 0.463 | 0.35 | 1 | MA12_B2fC Alphabody (His-tag removed, cysteine blocked) (designed binder, free cysteine blocked with iodoacetamide) SIQEIQKEIAQIQAVIAGIQKYIYTMTGGSGGGSGGGSGGGSGMSIEEIQKQIAAIQCQIAAIQKQIYAMTGGSGGGSGGGSGGGSGMSIEEIQKQIAAIQEQILAIYKQIMAMVT |
